# According to US20180250358A1, “GHRH AGONISTS FOR THE TREATMENT OF ISCHEMIC DISORDERS” (published 2018):
# Read-outs that look alike come from different tables or passages of the source. Non-standard residues stand in square brackets, D forms with d. *: point of attachment. Desaminotyrosyl = O=C(CCc1ccc(O)cc1)*; Agmatine = N=C(N)NCCCCN*; Nle = CCCC[C@H](N)C(=O)O; Orn = NCCC[C@H](N)C(=O)O; Abu = CC[C@H](N)C(=O)O; GABA = NCCCC(=O)O
# Experiments:
# [1] = target: T1, GHRH receptor of human pituitary membranes (human, UniProt Q02643); assay: competition vs 125I-JV-1-42, human pituitary membranes
# T1 sequence: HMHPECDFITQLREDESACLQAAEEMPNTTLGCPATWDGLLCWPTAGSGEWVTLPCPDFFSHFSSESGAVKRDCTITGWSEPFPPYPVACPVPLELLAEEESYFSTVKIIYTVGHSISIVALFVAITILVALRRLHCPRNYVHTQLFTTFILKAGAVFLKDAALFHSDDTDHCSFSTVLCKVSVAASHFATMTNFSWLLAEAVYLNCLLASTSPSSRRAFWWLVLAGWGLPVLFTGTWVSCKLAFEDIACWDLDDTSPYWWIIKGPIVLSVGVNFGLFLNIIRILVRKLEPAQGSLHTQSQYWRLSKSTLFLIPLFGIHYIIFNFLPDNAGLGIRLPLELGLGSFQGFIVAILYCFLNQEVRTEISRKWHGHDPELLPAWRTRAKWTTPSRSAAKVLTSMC
# Method: The final binding affinities were expressed as IC₅₀ values and were calculated by using the LIGAND PC computerized curve-fitting program of Munson and Rodbard as modified by McPherson.
# [2] = target: T1, GHRH receptor of human pituitary …; assay: as above; remark: listed apart in the source
# Text: Normal human pituitaries were purchased from the National Hormone and Peptide Program (A.F. Parlow, Los Angeles, County Harbor-UCLA Medical Center, Torrance, Calif.).
# [3] = target: T1, GHRH receptor of human pituitary …; assay: competition vs 125I-[His1,Nle27]hGHRH(1-32)NH2, human pituitary membranes
# Text: Normal human pituitary was purchased from the National Hormone and Peptide Program (UCLA Medical Center, Torrance, Calif.).
Binder,IC50 [1],relative affinity (binding potency) vs GHRH [1],relative affinity (binding potency) vs JI-38 [1],IC50 [2],relative affinity (binding potency) vs JI-38 [2],IC50 [3],relative affinity (binding potency) compared to JI-38 [3],relative affinity (binding potency) compared to hGHRH(1-29) [3]
"[Desaminotyrosyl][dA]DAIFTNSYR[Orn]VL[Abu]QLSAR[Orn]LLQDI[Nle]SRQ-{GABA-NH2} (SMILES CCCC[C@H](NC(=O)[C@@H](NC(=O)[C@H](CC(=O)O)NC(=O)[C@H](CCC(N)=O)NC(=O)[C@H](CC(C)C)NC(=O)[C@H](CC(C)C)NC(=O)[C@H](CCCN)NC(=O)[C@H](CCCNC(=N)N)NC(=O)[C@H](C)NC(=O)[C@H](CO)NC(=O)[C@H](CC(C)C)NC(=O)[C@H](CCC(N)=O)NC(=O)[C@H](CC)NC(=O)[C@H](CC(C)C)NC(=O)[C@@H](NC(=O)[C@H](CCCN)NC(=O)[C@H](CCCNC(=N)N)NC(=O)[C@H](Cc1ccc(O)cc1)NC(=O)[C@H](CO)NC(=O)[C@H](CC(N)=O)NC(=O)[C@@H](NC(=O)[C@H](Cc1ccccc1)NC(=O)[C@@H](NC(=O)[C@H](C)NC(=O)[C@H](CC(=O)O)NC(=O)[C@@H](C)NC(=O)CCc1ccc(O)cc1)[C@@H](C)CC)[C@@H](C)O)C(C)C)[C@@H](C)CC)C(=O)N[C@@H](CO)C(=O)N[C@@H](CCCNC(=N)N)C(=O)N[C@@H](CCC(N)=O)C(=O)NCCCC(N)=O) [P-29702 [Dat^1, D-Ala^2, Orn^12, Abu^15, Orn^21, Nle^27, Gln-Gab^30]hGHRH(1-30)NH2]",0.05 nM,81.2 vs GHRH(1-29)=1,34.2 vs JI-38=1,0.86 nM,5.06 vs JI-38=1,3.3 nM,0.83 vs JI-38=1,2.31 vs hGHRH(1-29)NH2=1
"[Desaminotyrosyl][dA]DAIFTQSYR[Orn]VL[Abu]QLSAR[Orn]LLQDI[Nle]D[Agmatine] (SMILES CCCC[C@H](NC(=O)[C@@H](NC(=O)[C@H](CC(=O)O)NC(=O)[C@H](CCC(N)=O)NC(=O)[C@H](CC(C)C)NC(=O)[C@H](CC(C)C)NC(=O)[C@H](CCCN)NC(=O)[C@H](CCCNC(=N)N)NC(=O)[C@H](C)NC(=O)[C@H](CO)NC(=O)[C@H](CC(C)C)NC(=O)[C@H](CCC(N)=O)NC(=O)[C@H](CC)NC(=O)[C@H](CC(C)C)NC(=O)[C@@H](NC(=O)[C@H](CCCN)NC(=O)[C@H](CCCNC(=N)N)NC(=O)[C@H](Cc1ccc(O)cc1)NC(=O)[C@H](CO)NC(=O)[C@H](CCC(N)=O)NC(=O)[C@@H](NC(=O)[C@H](Cc1ccccc1)NC(=O)[C@@H](NC(=O)[C@H](C)NC(=O)[C@H](CC(=O)O)NC(=O)[C@@H](C)NC(=O)CCc1ccc(O)cc1)[C@@H](C)CC)[C@@H](C)O)C(C)C)[C@@H](C)CC)C(=O)N[C@@H](CC(=O)O)C(=O)NCCCCNC(=N)N) [P-20350 [Dat^1, D-Ala^2, Gln^8, Orn^12, Abu^15, Orn^21, Nle^27, Asp^28, Agm^29]hGHRH(1-29)NH2]",0.04 nM,102 vs GHRH(1-29)=1,42.7 vs JI-38=1,0.52 nM,8.37 vs JI-38=1,,,
"YADAIFTNSYRKVLGQLSARKLLQDIMSRQ (Dat^1; D-Abu^2; Orn^12; Abu^15; Orn^21; Nle^27; Gab^30 (in place of Gln^30); C-terminal -NH2) [P-25504 [Dat^1, D-Abu^2, Orn^12, Abu^15, Orn^21, Nle^27, Gab^30]hGHRH(1-30)NH2]",,,,1.44 nM,3.02 vs JI-38=1,2.85 nM,0.96 vs JI-38=1,2.68 vs hGHRH(1-29)NH2=1
"YADAIFTNSYRKVLGQLSARKLLQDIMSRQ (Dat^1; D-Ala^2; Fpa5^6; Orn^12; Abu^15; Orn^21; Nle^27; Gab^30 (in place of Gln^30); C-terminal -NH2) [P-25502 [Dat^1, D-Ala^2, Fpa5^6, Orn^12, Abu^15, Orn^21, Nle^27, Gab^30]hGHRH(1-30)NH2]",0.07 nM,58 vs GHRH(1-29)=1,24.4 vs JI-38=1,0.33 nM,13.2 vs JI-38=1,2.16 nM,1.27 vs JI-38=1,3.54 vs hGHRH(1-29)NH2=1
